{"source": "patent US20250313819A1", "molecular_target": "poly-GA dipeptide repeat protein (human)", "experiment": "MSD sandwich ELISA on neuron lysate, C9-patient vs KO line", "data": [{"substance": "anti-GA antibody (MABN889, Millipore)", "values": [{"measurement": "ratio of signal from the C9-patient vs KO line", "result": 2}]}]}
